Data taken from article doi:10.1101/521351 (bioRxiv, 2019).
Blank lines part the entries; values can stand above or below the molecule they belong to.

How the values were obtained:
[1] = target: ICA512 RESP18HD (regulated endocrine-specific protein 18 homology domain of ICA512, residues 35-131) (human) (UniProt Q16849); assay: co-sedimentation
light scattering = target: the molecule itself; assay: light scattering

- stoichiometry N ([1]; scale: mole of insulin per mole of ICA512 RESP18HD): 0.4
- stoichiometry N ([1]; scale: moles of insulin per mole of ICA512 RESP18HD): 2.8
Molecule: Human insulin (ligand)

B1: ICA512 RESP18HD (regulated endocrine-specific protein 18 homology domain of ICA512, residues 35-131) (domain or fragment, human, UniProt Q16849 35-131, looked up)
chain: VSAHGCLFDRRLCSHLEVCIQDGLFGQCQVGVGQARPLLQVTSPVLQRLQGVLRQLMSQGLSWHDDLTQYVISQEMERIPRLRPPEPRPRDRSGLAP
- binding result (light scattering): binds
